For test [1], the target named is EYFP-HilD (Salmonella enterica) (UniProt P0CL08). As to the kind of experiment: MST; HilE titrated against 50 nM EYFP-HilD; 25 °C, 0.05% Pluronic F-127, MST on-time 1.5 s.
The target in test [2] is HilD (full-length, unfused) (Salmonella enterica) (UniProt P0CL08). Kind of test: SEC-MALS; Superdex 75 Increase 10/300 GL, 50 mM NaH2PO4 pH 7.0, 200 mM NaCl, 0.5 ml/min; protein concentrations of 100 μM (Fig. 4, D and E).
The target in test [3] is EYFP-HilD (Salmonella enterica) (UniProt P0CL08). Kind of test: MST; HilE titrated against EYFP-HilD preincubated with 1% DMSO; MST on-time 1.5 s, 25 °C.

pKd: −log10 of the molar value.

For HilE (natural protein), the pKd in test [1] was 5.74; in test [3], 5.79. The stoichiometry N in test [2] turned out to be 1.

The values are drawn from PMC10696396, “HilE represses the activity of the Salmonella virulence regulator HilD via a mechanism distinct from that of intestinal long-chain fatty acids” (The Journal of Biological Chemistry, 2023).
